Laboratory results: patent KR20180006452A (dated 2018)
Substitutions are numbered along the chain they refer to. Names may count otherwise.

How the values were obtained:
가용형 인간 FcγRIa = molecular target: T1, 가용형 인간 FcγRIa (human, UniProt P12314 16-292, limits assumed); assay: SPR (BIACORE T200), antibody captured on rProtein L, soluble FcγR as analyte, 20C
T1 construct: also called hFcγRIa; not shown: His tag

가용형 필리핀 원숭이 FcγRIIIa = molecular target: T2, 가용형 필리핀 원숭이 FcγRIIIa (필리핀 원숭이 (cynomolgus monkey), UniProt Q8SPW2 17-208, limits assumed); assay: as above
T2 construct: also called cynoFcγRIIIa; not shown: His tag

가용형 인간 FcγRIIIa = molecular target: T3, 가용형 인간 FcγRIIIa (human, UniProt P08637 17-208, limits assumed); assay: as above
T3 construct: also called hFcγRIIIa; not shown: His tag

가용형 인간 FcγRIIb = molecular target: T4, 가용형 인간 FcγRIIb (human, UniProt P31994 43-217, limits assumed); assay: SPR (BIACORE T200), hFcγRIIb captured by anti-His antibody, IgE-antibody complex as analyte, pH 7.4, 25C
T4 construct: also called hFcγRIIb; hFcγRII2b; not shown: His tag
T4 sequence (looked up): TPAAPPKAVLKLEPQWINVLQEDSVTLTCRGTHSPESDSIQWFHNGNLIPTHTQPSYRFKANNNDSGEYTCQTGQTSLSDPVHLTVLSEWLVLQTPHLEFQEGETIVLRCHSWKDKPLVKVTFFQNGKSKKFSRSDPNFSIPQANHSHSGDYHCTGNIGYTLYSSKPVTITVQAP

T1 sequence (P12314 16-292 limits assumed): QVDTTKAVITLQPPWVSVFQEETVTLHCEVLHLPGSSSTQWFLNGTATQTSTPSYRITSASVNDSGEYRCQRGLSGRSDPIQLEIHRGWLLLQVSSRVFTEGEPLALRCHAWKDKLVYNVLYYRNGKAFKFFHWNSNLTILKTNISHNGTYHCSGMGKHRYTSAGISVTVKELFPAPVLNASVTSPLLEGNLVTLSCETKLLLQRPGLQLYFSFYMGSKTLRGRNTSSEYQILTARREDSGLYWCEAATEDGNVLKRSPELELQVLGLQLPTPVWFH
T2 sequence (Q8SPW2 17-208 limits assumed): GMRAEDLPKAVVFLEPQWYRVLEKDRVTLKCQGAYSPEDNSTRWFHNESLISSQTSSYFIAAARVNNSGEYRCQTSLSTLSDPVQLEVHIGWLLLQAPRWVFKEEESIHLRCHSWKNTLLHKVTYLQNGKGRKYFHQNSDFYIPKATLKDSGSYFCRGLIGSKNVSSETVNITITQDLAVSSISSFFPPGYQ
T3 sequence (P08637 17-208 limits assumed): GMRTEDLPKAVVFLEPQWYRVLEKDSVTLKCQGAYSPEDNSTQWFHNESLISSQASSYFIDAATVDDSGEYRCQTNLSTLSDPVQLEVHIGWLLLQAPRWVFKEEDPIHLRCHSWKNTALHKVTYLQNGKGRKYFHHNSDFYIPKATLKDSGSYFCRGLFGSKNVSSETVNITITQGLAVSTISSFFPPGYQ

B1: H1009/L395-F1886s (antibody)
heavy: QVQLVESGGGLVQPGGSLRLSCAASGFTFSDYYLSWVRQAPGKGLEWVGLIRNKDNYHTPEYSASVKGRFTISRDDSKNSLYLTMSDLKTEDTAVYYCARENHRYDVELAYWGQGTLVTVSSASTKGPSVFPLAPSSKSTSGGTAALGCLVKDYFPEPVTVSWNSGALTSGVHTFPAVLQSSGLYSLSSVVTVPSSSLGTQTYICNVNHKPSNTKVDKKVEPKSCDKTHTCPPCPAPELRRGPKVFLFPPKPKDTLMISRTPEVTCVVVDVSHEDPEVKFNWYVDGVEVHNAKTKPREEQYNSTYRVVSVLTVLHQDWLNGKEYKCKVSNKALPAPIEKTISKAKGQPREPQVYTLPPSREEMTKNQVSLTCLVKGFYPSDIAVEWESNGQPENNYKTTPPVLDSDGSFFLYSKLTVDKSRWQQGNVFSCSVLHEALHAHTTRKELSLSP
light: DIQMTQSPSSLSASVGDRVTITCRASEIIYSYLAWYQQKPGKAPKLLIYKAKTHADGVPSRFSGSGSGTDFTFTISSLQPEDIATYYCKHHFGFPRTFGQGTKVEIKRTVAAPSVFIFPPSDEQLKSGTASVVCLLNNFYPREAKVQWKVDNALQSGNSQESVTEQDSKDSTYSLSSTLTLSKADYEKHKVYACEVTHQGLSSPVTKSFNRGEC
notes: also called H1009-F1886s/L395-k0MT
- binding result (가용형 인간 FcγRIa): no binding
- binding result (가용형 필리핀 원숭이 FcγRIIIa): no binding
- binding result (가용형 인간 FcγRIIIa): no binding

B2: H1009/L395-F1974m (antibody)
heavy: B1 heavy with K244S, A332G, A335S, P336S
light: B1 light
notes: also called H1009-F1974m/L395-k0MT
- binding result (가용형 인간 FcγRIa): no binding
- binding result (가용형 필리핀 원숭이 FcγRIIIa): no binding
- binding result (가용형 인간 FcγRIIIa): no binding

B3: Ab1H-P1394m/Ab1L (antibody, human IgG1, kappa)
heavy: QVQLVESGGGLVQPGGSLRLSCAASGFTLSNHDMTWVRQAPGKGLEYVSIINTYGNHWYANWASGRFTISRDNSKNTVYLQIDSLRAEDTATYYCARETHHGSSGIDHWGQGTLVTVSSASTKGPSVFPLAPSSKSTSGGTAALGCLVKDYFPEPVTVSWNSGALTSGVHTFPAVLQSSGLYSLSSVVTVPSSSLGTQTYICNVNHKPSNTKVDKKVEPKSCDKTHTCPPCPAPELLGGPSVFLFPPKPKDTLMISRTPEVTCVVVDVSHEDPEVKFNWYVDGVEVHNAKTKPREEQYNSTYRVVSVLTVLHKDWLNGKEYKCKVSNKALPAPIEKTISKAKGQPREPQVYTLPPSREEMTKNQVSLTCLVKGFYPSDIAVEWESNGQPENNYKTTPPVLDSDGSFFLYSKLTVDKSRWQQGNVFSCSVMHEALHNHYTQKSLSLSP
light: DIQMTQSPSSVSASVGDRVTITCQASESIYSGLAWYQQKPGQPPKLLIYDHSTLASGVPSRFSGSGSGTEYALTISSLQPEDFATYYCQHADYAHHSDNVFGGGTKVEIKRTVAAPSVFIFPPSDEQLKSGTASVVCLLNNFYPREAKVQWKVDNALQSGNSQESVTEQDSKDSTYSLSSTLTLSKADYEKHKVYACEVTHQGLSSPVTKSFNRGEC
notes: Ab1H with Q311K (EU numbering)
- binding result (가용형 인간 FcγRIIb): binds
